Results on 3 substances are retold here after publication PMC3600821.

For this assay, the target named is Skeletal muscle actin (F-actin) (rabbit) (UniProt P68135).
Take “S619C-IQ (S619C construct extended to include one IQ domain) (from UniProt P08799 1-790) (domain or fragment)”: the actin-activated Mg-ATPase: K (ATPase) (the actin concentration giving V=Vmax/2) is 17.3 µM and the actin-activated Mg-ATPase: Vmax/K (ATPase) (catalytic efficiency) was 0.18 s⁻¹ µM⁻¹.

For “Muscle S1 (skeletal muscle myosin II subfragment 1) (domain or fragment)”, the actin-activated Mg-ATPase: K (ATPase) (the actin concentration giving V=Vmax/2) turned out to be 15.8 µM and the actin-activated Mg-ATPase: Vmax/K (ATPase) (catalytic efficiency) was 1.23 s⁻¹ µM⁻¹.

With “M761-2R (761-aa wild-type Dictyostelium myosin II catalytic domain fused to two α-actinin repeats) (from UniProt P08799 1-761)”, the actin-activated Mg-ATPase: K (ATPase) (the actin concentration giving V=Vmax/2) stood at 59 µM and the actin-activated Mg-ATPase: Vmax/K (ATPase) (catalytic efficiency) is 0.13 s⁻¹ µM⁻¹.
